Measured values from publication PMC4802056.

Target: taxol-stabilized microtubules
Assay: co-sedimentation; microtubule spin-down from DT40 lysates (about 2 mg/ml) mixed with taxol-stabilized microtubules (0.2 mg/ml) or non-taxol tubulin, 30 °C 30 min, pelleted through a 1 M sucrose cushion in BRB80, western blotting

Substance: CEP215(ΔCM1)-TAP (domain or fragment)
- fold reduction in microtubule binding compared with CEP215-TAP and CEP215(ΔHBR)-TAP: 3.4 fold
